Data taken from publication PMC12501420, “Small DUF1127 proteins regulate bacterial phosphate metabolism through protein–protein interactions with the sensor kinase PhoR” (microLife, 2025).

Target: T1, Strep-PhoR, sensor kinase PhoR from E. coli, purified (E. coli, UniProt P08400 1-431)
T1 construct: sensor kinase PhoR of Escherichia coli; one of 'both Strep-PhoR proteins' of the methods; also called E. coli PhoR; source: E. coli BL21, purified (membranes solubilised with Triton X-100, Strep-Tactin)
T1 sequence (looked up): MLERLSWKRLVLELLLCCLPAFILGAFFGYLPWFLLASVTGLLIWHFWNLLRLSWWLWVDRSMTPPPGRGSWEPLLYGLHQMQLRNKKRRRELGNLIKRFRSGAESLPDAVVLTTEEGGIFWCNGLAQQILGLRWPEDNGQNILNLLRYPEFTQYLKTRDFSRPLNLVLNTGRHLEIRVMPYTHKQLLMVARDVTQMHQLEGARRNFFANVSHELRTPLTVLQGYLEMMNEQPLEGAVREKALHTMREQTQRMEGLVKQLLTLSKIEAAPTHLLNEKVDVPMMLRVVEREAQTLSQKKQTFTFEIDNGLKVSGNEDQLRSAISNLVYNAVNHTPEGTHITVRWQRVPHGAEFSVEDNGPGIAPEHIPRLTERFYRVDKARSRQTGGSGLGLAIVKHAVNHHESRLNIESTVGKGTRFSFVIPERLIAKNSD
Test: far-Western, overlay or dot blot; Far-Western dot blot: Strep-tagged bait proteins spotted on a nitrocellulose membrane, incubated with His-SUMO-tagged DUF1127 protein, detected with anti-His antibody; EveryBlot blocking buffer, PBST washes (for E. coli PhoR and YjiS, Fig. 8B, it is not told who was spotted)
Conditions: both partners purified

B1: YjiS from E. coli, purified (natural protein, UniProt P39390 1-54, looked up)
chain: MEFHENRAKAPFIGLVQLWQAVRRWRRQMQTRRVLQQMSDERLKDIGLRREDVE
notes: YjiS, the sole DUF1127 protein of Escherichia coli, a 54-amino acid protein; also called E. coli YjiS
binding result: binds
